Results published in the supplement of paper PMC10567573.

B1: SCNN1D (parent)
chain: RRPSPVLRHLELLDEFARENIDSL

Variants of: B1
Test: protein stability index of a GFP-peptide fusion (GPS, HEK-293T) (PSI 1-6); higher = more stable
Details: c terminus: a fixed tail appended
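Further: lentivirally expressed fusions sorted by FACS into six bins by GFP to DsRed ratio, PSI derived from sequencing read proportions per bin multiplied by bin number.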

Protein stability index, by site and new letter:
E15: K 2.82 | G 3.34 | H 2.92 | M 2.18 | I 2.72 | S 3.27 | D 3.21 | V 2.29 | N 3.41 | R 2.72 | T 2.92 | P 3.02 | W 2.05 | Y 1.83 | F 2.03 | A 2.97 | C 2.94 | L 1.76 | Q 2.95
L10: V 3.41 | S 4.16 | R 4.46 | Y 3 | K 4.33 | N 4.23 | Q 3.84 | W 3.23 | T 3.59 | I 2.1 | P 3.56 | M 2.34
E11: A 3.1 | I 1.9 | S 3.25 | C 2.01 | Y 2.25 | P 3.75 | F 1.89 | L 1.41 | K 2.83 | D 3.55 | V 2.56 | N 3.5 | M 2.14 | Q 3.06 | T 2.41 | G 4.33 | R 2.96 | W 2.49 | H 3.18
R18: S 3.26 | L 2.43 | C 2.48 | M 2.98 | W 1.73 | E 3.12 | K 3.67 | F 3 | Q 2.84 | D 3.44 | I 2.44 | Y 2.7 | G 3.6 | H 3.17 | V 2.35 | N 2.42 | T 3.16 | P 4.25 | A 2.37
L12: A 3.81 | C 3.97 | T 4.35 | N 3.9 | M 3.98 | R 3.63 | P 4.4 | K 4.1 | Q 4.51 | I 3.65 | D 4.64 | E 4.08 | V 4.05 | W 3.1 | S 4.4 | G 4.09 | F 2.81 | H 4.25 | Y 3.56
F16: D 4.61 | I 2.84 | W 2.64 | N 3.88 | C 3.61 | V 3.95 | Q 3.14 | P 3.72 | K 3.91 | S 4.57 | L 3.36 | A 2.61 | T 4.21 | E 3.63 | R 4.28 | Y 3.09 | G 4.12 | M 2.25 | H 3.77
D14: F 1.42 | Y 2 | A 1.67 | R 2.27 | P 2.92 | W 1.44 | M 2.6 | Q 2.94 | T 2.21 | C 1.59 | N 2.74 | S 2.16 | G 2.83 | K 1.8 | E 2.56 | V 1.37 | I 1.78 | H 2.5 | L 2.86
L13: G 4.23 | I 3.73 | Q 3.78 | P 4.21 | T 4.13 | R 3.6 | D 4.57 | S 4.26 | K 3.9 | N 4.16 | F 3.14 | A 3.98 | C 3.57 | W 3.19 | Y 3.19 | H 4.31 | E 4.48 | M 3.59 | V 3.6
E19: D 2.73 | A 3.18 | C 2.66
A17: V 2.94 | T 3.62 | P 3.48 | Q 3.16 | R 2.94 | N 4.14 | H 3.74 | Y 2.9 | I 2.46 | M 2.92 | D 4.43 | S 4.37 | K 3.98 | W 3.03 | E 4.18 | L 3.07 | F 2.24 | G 3.72 | C 3.38
